Results published in patent US20250340881A1, “PHARMACEUTICAL COMPOSITION FOR TREATING CANCER COMPRISING FOXM1 MUTANT OR FOXM1 SHRNA” (Industry-University Cooperation Foundation Hanyang …, priority 2022, published 2025).

Columns and labels:
A549 lung cancer cells [1] = assay: Wound healing assay of A549 cells expressing FoxM1 phosphorylated point mutants; assay type: cell-based; conditions: distance in the control group at 72 h set to 0%
Protocol: To observe the effects of phosphorylation point mutations on the motility of cancer cells, a wound healing assay was performed in lung cancer cells A549 expressing FoxM1 wild type (WT), phosphorylated point mutants S25E, S361E, and S715E, and a simultaneous triple-point mutation EEE protein.
Specifically, cells expressing the gene of FoxM1 point mutant by the lentivirus system were seeded into 6-well plates at 1×10^5 cells/well each. 24 hours after cell seeding, scratches were made at regular intervals using a 200 μl-pipette tip. In addition, A549 cells treated with mock as a negative control (Mock) and 5 ng/ml of TGF-β as a positive control were used. […] In addition, the distance in the control group at 72 h was set to 0%, and the relative distance was represented as a bar graph (FIG. 4G).

A549 cells [2] = assay: M2d-inducing factor mRNA in A549 cells after co-culture with THP-1 cells; assay type: cell-based; conditions: co-culture with THP-1 48 hours
Protocol: (§1) In addition, after co-culturing of human monocyte THP-1 cells and cell groups over-expressing FoxM1 point mutations for 48 hours under the conditions where the previous experiments were performed, the mRNA expression levels of M2d-inducing factors IL4, IL6, IL10, and VEGFA in A549 cells expressing FoxM1 S25E were analyzed. […] The amounts of TGFB1 and VEGFA proteins in the medium cultured for 48 h with A549 cells (4×10^4 cells/ml) expressing FoxM1 variants were measured by ELISA.

lung tissues = assay: EMT marker and PD-L1 protein levels in lysed lung tissue of injected mice; assay type: in vivo
Protocol: Next, when the lung tissues were lysed and the protein levels of epithelial-mesenchymal transition markers were measured, the protein levels of the mesenchymal marker N-cadherin increased in the FoxM1 phosphorylated point mutant experimental group, while the levels of E-cadherin decreased. In addition, the expression of PD-L1, which was known to be involved in immune evasion and to enhance the tumorigenic potential of cancer cells, was also examined in each experimental group. […] Moreover, the consistent results were confirmed not only at the protein levels but also at the mRNA levels (FIG. 5E).

A549 cells [3] = assay: ELISA of TGFB1 and VEGFA proteins in A549 culture medium; assay type: cell-based; conditions: medium cultured 48 h
Protocol: as §1

A549 lung cancer cells [4] = assay: Cell proliferation assay of A549 cells expressing FoxM1 point mutants; assay type: cell-based; conditions: A549 cells expressing the mutant
THP-1 cells = assay: M1 and M2 marker mRNA in THP-1 cells co-cultured with FoxM1-expressing A549 cells; assay type: cell-based, human; conditions: co-culture 48 h
Excerpt: In the animal tissues, it was confirmed that both PD-L1 protein expression and CD274 mRNA expression were increased in cancer cells expressing FoxM1 (FIG. 5D, 5E). […] From the results described above, we investigated whether FoxM1 phosphorylated point mutant (S25E) affects the polarization of macrophages in the tumor microenvironment. After co-culturing human monocyte THP-1 cells and the cell groups over-expressing FoxM1 point mutants, M1 and M2 markers were examined in THP-1 cells.
Next, an expression suppression system for suppressing FoxM1 expression was established to observe whether the FoxM1 phosphorylated point mutant (S25E) directly affects polarization to M2 macrophages. First, to inhibit the expression of mRNA of FoxM1, a pLKO-puro.1-hFoxM1 plasmid was produced using a pLKO-puro.1 vector to construct shRNAs targeting nucleotide sequences at 709-729 positions in the human FoxM1 mRNA sequence. The following sequences can be used as target sequences for human FoxM1 shRNA production, and oligonucleotides with the following sequences can be used as primers for shRNA production. The gene accession number for human FoxM1 mRNA in PubMed is NM_001243088.2, and it contains 3507 bp. The following primers were used for shRNA production: 5′-ccgg-[…]-ctcgag-[…]-tttttg-3′ (forward primer) and 5′-aattcaaaaa-AGCAAG AGATGGAGGAAAAGG-ctcgag-[…]-3′ (reverse primer). Then, after purifying and concentrating each lentivirus for expression of the produced FoxM1 shRNA, it was constructed by infecting a lung cancer cell line, A549 cells expressing FoxM1, with the virus. The mRNA expression of M2 markers, CD163, CD206, and VEGFA, was examined after co-culturing lung cancer cells (4×10^4 cells/ml) with suppressed FoxM1 expression and THP-1 cells (1.2×10^5 cells/ml) for 48 h. […] When co-culturing with cancer cells expressing the FoxM1 variant S25E, it was confirmed that the M2 markers CD163, CD206, and VEGFA were all increased by 2 folds or more in THP1 cells compared to the control group (Mock_shCtrl) (FIG. 6D).
After co-culturing the FoxM1 WT protein over-expressed cancer cells (4×10^4 cells/ml) and THP-1 cells (1.2×10^5 cells/ml) for 48 h, the mRNA expression of M1 markers INOS and IL12B was not altered, while the mRNA expression of all the M2 markers IL10, CD163, CD206, TGFB1, and VEGFA was increased in the FoxM1 WT (FIG. 13A). Among them, CD206, TGFB1, and VEGFA had been known as markers for M2d-tumor-associated macrophages (M2d-TAM) (JAYASINGAM, Sharmilla Devi, et al., Frontiers in Oncology (2020) 9: 1512.).

THP-1 monocytes = assay: PD-1 (CD279) mRNA in THP-1 monocytes co-cultured with A549 cells; assay type: cell-based, human; conditions: co-culture
Protocol: To examine the mRNA expression levels of PD-1 and PD-L1, which are involved in solid tumor immune evasion, in THP-1 cells and the cells expressing the FoxM1 phosphorylated point mutant, the expression of PD-1 (CD279) mRNA, an immune evasion factor, was measured by qRT-PCR in THP-1 monocytes co-cultured with A549^S25E cells for 48 h (FIG. 7B). It was observed that the expression of mRNA of PD-L1 (CD274), an immune evasion factor, increased by 2 folds in the A549^S25E cells expressing the phosphorylated point mutant compared to the control group.

Row | Molecule | relative healing distance (motility) at 72 h (A549 lung cancer cells [1]) [%] | mRNA expression level of IL4 in A549 cells (A549 cells [2]) [folds] | mRNA expression level of IL6 in A549 cells (A549 cells [2]) [folds] | mRNA expression level of IL10 in A549 cells (A549 cells [2]) [folds] | mRNA expression level of VEGFA in A549 cells (A549 cells [2]) [folds] | mRNA expression level, fifth value printed (factor not named) (A549 cells [2]) [folds] | expression of PD-L1 in lung tissue (lung tissues) | protein level of E-cadherin in lung tissue (lung tissues) | protein level of N-cadherin in lung tissue (lung tissues) | amount of TGFB1 protein in medium, compared to Mock (A549 cells [3]) [folds] | amount of VEGFA protein in medium, compared to Mock (A549 cells [3]) [folds] | cell proliferation (A549 lung cancer cells [4]) | M2 markers CD163, CD206 and VEGFA in THP1 cells compared to Mock_shCtrl (THP-1 cells) [folds] | mRNA expression of M1 markers INOS and IL12B in THP-1 cells (THP-1 cells) | mRNA expression of M2 markers IL10, CD163, Cd206, TGFB1 and VEGFA in THP-1 cells (THP-1 cells) [folds] | expression of PD-1 mRNA (CD279) in THP-1 monocytes (THP-1 monocytes)
1 | S25E: FoxM1 phosphorylated point mutant of the S25 residue, expressed by lentivirus in A549 cells (protein, listed as Homo sapiens) MKTSPRRPLILKRRRLPLPVQNAPEETSEEEPKRSPAQQESNQAEASKEVAESNSCKFPAGIKIINHPTMPNTQVVAIPNNANIHSIITALTAKGKESGSSGPNKFILISCGGAPTQPPGLRPQTQTSYDAKRTEVTLETLGPKPAARDVNLPRPPGALCEQKRETCDGEAAGCTINNSLSNIQWLRKMSSDGLGSRSIKQEMEEKENCHLEQRQVKVEEPSRPSASWQNSVSERPPYSYMAMIQFAINSTERKRMTLKDIYTWIEDHFPYFKHIAKPGWKNSIRHNLSLHDMFVRETSANGKVSFWTIHPSANRYLTLDQVFKQQQKRPNPELRRNMTIKTELPLGARRKMKPLLPRVSSYLVPIQFPVNQSLVLQPSVKVPLPLAASLMSSELARHSKRVRIAPKVLLAEEGIAPLSSAGPGKEEKLLFGEGFSPLLPVQTIKEEEIQPGEEMPHLARPIKVESPPLEEWPSPAPSFKEESSHSWEDSSQSPTPRPKKSYSGLRSPTRCVSEMLVIQHRERRERSRSRRKQHLLPPCVDEPELLFSEGPSTSRWAAELPFPADSSDPASQLSYSQEVGGPFKTPIKETLPISSTPSKSVLPRTPESWRLTPPAKVGGLDFSPVQTSQGASDPLPDPLGLMDLSTTPLQSAPPLESPQRLLSSEPLDLISVPFGNSSPSDIDVPKPGSPEPQVSGLAANRSLTEGLVLDTMNDSLSKILLDISFPGLDEDPLGPDNINWSQFIPELQ | 43 | 1.8 | 1.8 | 2.2 | 2.5 | 2.5 | elevated | decreased | increased | 5 | 4 | did not significantly increase | ≥ 2 | did not change | ≥ 2 | –
2 | S25A: FoxM1 protein with Ser25 substituted with alanine, non-phosphorylated point mutant, expressed by lentivirus in A549 cells (protein, left off: a dimerising Fc or GST, FoxM1 protein with Ser25 substituted with alanine, non-phosphorylated point mutant, expressed by lentivirus in A549 cells) MKTSPRRPLILKRRRLPLPVQNAPAETSEEEPKRSPAQQESNQAEASKEVAESNSCKFPAGIKIINHPTMPNTQVVAIPNNANIHSIITALTAKGKESGSSGPNKFILISCGGAPTQPPGLRPQTQTSYDAKRTEVTLETLGPKPAARDVNLPRPPGALCEQKRETCDGEAAGCTINNSLSNIQWLRKMSSDGLGSRSIKQEMEEKENCHLEQRQVKVEEPSRPSASWQNSVSERPPYSYMAMIQFAINSTERKRMTLKDIYTWIEDHFPYFKHIAKPGWKNSIRHNLSLHDMFVRETSANGKVSFWTIHPSANRYLTLDQVFKQQQKRPNPELRRNMTIKTELPLGARRKMKPLLPRVSSYLVPIQFPVNQSLVLQPSVKVPLPLAASLMSSELARHSKRVRIAPKVLLAEEGIAPLSSAGPGKEEKLLFGEGFSPLLPVQTIKEEEIQPGEEMPHLARPIKVESPPLEEWPSPAPSFKEESSHSWEDSSQSPTPRPKKSYSGLRSPTRCVSEMLVIQHRERRERSRSRRKQHLLPPCVDEPELLFSEGPSTSRWAAELPFPADSSDPASQLSYSQEVGGPFKTPIKETLPISSTPSKSVLPRTPESWRLTPPAKVGGLDFSPVQTSQGASDPLPDPLGLMDLSTTPLQSAPPLESPQRLLSSEPLDLISVPFGNSSPSDIDVPKPGSPEPQVSGLAANRSLTEGLVLDTMNDSLSKILLDISFPGLDEDPLGPDNINWSQFIPELQ | – | – | – | – | – | – | – | – | – | – | – | – | – | – | – | highest
